Test results: patent publication US8709448B2, “Anti-infective agents and uses thereof” (priority 2008, dated 2014)

System: PBMC

Substance: IFNα
- effect on overall PBMC culture viability: no effect
